The record followed here is paper PMC8934652.

For data set [1], the target named is T1, CELF1 RRM1/2 (UniProt Q92879 1-187). The data set is described as follows: FP.
Data set [2] concerns the target CELF1 RRM1/2 S147A (UniProt Q92879 1-187, S147A). The data set is described as follows: FP.
For data set [3], the target named is T1, CELF1 RRM1/2. The data set is described as follows: FP competition.

T1 sequence (Q92879 1-187): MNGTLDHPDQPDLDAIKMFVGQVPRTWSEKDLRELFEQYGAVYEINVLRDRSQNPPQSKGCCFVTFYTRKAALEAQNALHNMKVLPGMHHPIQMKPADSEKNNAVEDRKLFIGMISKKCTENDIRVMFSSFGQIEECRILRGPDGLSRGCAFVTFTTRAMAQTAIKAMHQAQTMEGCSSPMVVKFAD
CELF1 RRM1/2 S147A, sequence (Q92879 1-187 S147A): as the sequence (Q92879 1-187) above, with S147A counted along it

Consider UUGUUGUU (ssRNA) [GU probe], for which the binding result in data set [1] and in data set [2] was “binds” throughout.

Regarding UUGUUGUU (ssRNA) [GU cold probe], in data set [3], the binding result is on record as “binds”.
